This is an account of results in publication PMC8011160.

“And” between values parts separate entries of the source, which are not always exact repeats. Equal values may be shown once.

Holding throughout (assay): ELISA; host protein coated on microtiter wells; recombinant protein varied from 0 to 2 μM; absorbance with BSA subtracted; apparent Kd from the half-maximal binding concentration (GraphPad Prism 6)
Background: ELISA stands for enzyme-linked immunosorbent assay.

In assay [1] the target is plasminogen (purified from human plasma) (human).
The target in assay [2] is plasma fibronectin (purified from human plasma) (human).
Assay [3] has as its target collagen Type IV (purified from basement membrane of Engelbreth-Holm-Swarm mouse sarcoma) (mouse) (UniProt P02463).
The target in assay [4] is collagen Type I (purified from rat tail) (rat) (UniProt P02454).
The target in assay [5] is fibrinogen (purified from human plasma) (human) (UniProt P02671).
Assay [6] concerns the target laminin (purified from basement membrane of Engelbreth-Holm-Swarm mouse sarcoma) (mouse) (UniProt P19137).
The target of assay [7] is elastin (purified from bovine neck ligament) (bovine) (UniProt P04985).
elastin (purified from bovine neck ligament) (bovine), sequence (P04985 27-747): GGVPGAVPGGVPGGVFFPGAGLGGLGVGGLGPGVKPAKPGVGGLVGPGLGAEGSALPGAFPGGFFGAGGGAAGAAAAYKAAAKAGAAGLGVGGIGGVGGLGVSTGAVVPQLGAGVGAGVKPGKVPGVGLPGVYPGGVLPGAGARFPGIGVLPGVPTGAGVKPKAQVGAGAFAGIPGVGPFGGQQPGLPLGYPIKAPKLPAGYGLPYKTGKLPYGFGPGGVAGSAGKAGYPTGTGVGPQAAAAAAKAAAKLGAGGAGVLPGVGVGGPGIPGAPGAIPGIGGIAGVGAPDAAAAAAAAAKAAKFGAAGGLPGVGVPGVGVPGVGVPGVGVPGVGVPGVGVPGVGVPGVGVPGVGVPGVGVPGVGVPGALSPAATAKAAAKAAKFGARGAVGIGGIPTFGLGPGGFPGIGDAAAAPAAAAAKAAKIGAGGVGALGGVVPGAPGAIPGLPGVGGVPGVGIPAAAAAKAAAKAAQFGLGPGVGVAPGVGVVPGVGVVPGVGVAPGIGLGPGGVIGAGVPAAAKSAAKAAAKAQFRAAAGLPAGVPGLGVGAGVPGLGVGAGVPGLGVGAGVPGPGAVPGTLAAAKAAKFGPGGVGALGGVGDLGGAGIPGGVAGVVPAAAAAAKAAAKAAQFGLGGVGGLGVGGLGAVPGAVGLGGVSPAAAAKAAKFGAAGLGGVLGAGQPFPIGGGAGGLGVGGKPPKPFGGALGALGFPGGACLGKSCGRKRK

GroEL protein of Leptospira interrogans (recombinant, His-tagged), sequence (P61438 whole entry): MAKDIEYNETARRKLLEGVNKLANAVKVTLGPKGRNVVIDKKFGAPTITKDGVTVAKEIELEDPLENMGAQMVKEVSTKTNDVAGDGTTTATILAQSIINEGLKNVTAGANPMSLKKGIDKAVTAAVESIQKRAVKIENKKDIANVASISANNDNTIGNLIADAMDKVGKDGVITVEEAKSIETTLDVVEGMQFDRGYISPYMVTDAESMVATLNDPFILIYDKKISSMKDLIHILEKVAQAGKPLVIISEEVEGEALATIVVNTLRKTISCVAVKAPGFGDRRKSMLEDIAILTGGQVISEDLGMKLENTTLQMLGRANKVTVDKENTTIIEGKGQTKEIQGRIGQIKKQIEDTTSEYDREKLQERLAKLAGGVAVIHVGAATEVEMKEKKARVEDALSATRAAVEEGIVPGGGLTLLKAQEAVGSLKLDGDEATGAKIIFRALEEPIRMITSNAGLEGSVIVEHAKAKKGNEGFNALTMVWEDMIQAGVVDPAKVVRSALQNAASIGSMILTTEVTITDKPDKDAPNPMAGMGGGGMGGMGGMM
collagen Type IV (purified from basement membrane of Engelbreth-Holm-Swarm mouse sarcoma) (mouse), sequence (P02463 173-1669, chain 1 of 2): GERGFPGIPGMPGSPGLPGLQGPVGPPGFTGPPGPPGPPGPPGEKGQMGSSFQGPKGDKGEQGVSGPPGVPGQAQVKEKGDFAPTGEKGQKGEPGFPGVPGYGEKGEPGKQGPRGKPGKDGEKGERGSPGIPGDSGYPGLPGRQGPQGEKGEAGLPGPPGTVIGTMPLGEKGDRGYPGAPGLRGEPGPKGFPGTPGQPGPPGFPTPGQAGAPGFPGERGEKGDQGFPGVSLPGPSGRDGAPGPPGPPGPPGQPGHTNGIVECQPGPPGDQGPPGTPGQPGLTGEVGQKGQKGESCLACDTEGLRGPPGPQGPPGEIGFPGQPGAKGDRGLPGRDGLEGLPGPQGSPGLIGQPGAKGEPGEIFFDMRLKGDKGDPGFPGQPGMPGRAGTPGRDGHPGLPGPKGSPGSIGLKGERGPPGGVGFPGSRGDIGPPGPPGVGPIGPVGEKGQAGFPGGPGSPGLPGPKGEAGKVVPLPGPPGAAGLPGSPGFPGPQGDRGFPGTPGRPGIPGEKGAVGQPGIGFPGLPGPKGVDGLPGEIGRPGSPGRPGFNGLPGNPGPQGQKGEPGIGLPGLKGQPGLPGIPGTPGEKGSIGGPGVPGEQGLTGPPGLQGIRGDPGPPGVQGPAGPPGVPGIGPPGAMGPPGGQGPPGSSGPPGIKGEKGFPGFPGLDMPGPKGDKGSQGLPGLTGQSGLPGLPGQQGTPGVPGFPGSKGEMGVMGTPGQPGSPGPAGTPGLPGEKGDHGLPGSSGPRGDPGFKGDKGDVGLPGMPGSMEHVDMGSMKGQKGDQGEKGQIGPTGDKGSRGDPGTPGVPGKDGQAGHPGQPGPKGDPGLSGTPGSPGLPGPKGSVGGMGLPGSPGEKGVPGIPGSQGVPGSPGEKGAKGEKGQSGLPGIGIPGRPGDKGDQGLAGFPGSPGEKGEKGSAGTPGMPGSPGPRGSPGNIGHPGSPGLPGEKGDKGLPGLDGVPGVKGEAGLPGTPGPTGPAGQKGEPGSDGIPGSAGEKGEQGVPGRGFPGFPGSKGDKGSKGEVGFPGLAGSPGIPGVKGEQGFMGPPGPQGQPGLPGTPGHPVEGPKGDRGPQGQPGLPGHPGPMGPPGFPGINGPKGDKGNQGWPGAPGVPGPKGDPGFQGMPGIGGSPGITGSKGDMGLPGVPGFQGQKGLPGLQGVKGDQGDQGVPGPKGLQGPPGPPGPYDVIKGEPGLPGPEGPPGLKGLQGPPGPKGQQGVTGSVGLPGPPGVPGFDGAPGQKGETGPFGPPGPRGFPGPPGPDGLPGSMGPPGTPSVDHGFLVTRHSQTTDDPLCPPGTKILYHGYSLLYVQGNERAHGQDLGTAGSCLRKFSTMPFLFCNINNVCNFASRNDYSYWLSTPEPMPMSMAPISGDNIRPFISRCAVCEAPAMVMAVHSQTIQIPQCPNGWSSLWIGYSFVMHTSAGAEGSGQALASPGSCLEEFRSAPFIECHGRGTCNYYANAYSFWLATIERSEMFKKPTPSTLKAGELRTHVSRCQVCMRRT
collagen Type IV (purified from basement membrane of Engelbreth-Holm-Swarm mouse sarcoma) (mouse), sequence (P08122 184-1707, chain 2 of 2, further chain): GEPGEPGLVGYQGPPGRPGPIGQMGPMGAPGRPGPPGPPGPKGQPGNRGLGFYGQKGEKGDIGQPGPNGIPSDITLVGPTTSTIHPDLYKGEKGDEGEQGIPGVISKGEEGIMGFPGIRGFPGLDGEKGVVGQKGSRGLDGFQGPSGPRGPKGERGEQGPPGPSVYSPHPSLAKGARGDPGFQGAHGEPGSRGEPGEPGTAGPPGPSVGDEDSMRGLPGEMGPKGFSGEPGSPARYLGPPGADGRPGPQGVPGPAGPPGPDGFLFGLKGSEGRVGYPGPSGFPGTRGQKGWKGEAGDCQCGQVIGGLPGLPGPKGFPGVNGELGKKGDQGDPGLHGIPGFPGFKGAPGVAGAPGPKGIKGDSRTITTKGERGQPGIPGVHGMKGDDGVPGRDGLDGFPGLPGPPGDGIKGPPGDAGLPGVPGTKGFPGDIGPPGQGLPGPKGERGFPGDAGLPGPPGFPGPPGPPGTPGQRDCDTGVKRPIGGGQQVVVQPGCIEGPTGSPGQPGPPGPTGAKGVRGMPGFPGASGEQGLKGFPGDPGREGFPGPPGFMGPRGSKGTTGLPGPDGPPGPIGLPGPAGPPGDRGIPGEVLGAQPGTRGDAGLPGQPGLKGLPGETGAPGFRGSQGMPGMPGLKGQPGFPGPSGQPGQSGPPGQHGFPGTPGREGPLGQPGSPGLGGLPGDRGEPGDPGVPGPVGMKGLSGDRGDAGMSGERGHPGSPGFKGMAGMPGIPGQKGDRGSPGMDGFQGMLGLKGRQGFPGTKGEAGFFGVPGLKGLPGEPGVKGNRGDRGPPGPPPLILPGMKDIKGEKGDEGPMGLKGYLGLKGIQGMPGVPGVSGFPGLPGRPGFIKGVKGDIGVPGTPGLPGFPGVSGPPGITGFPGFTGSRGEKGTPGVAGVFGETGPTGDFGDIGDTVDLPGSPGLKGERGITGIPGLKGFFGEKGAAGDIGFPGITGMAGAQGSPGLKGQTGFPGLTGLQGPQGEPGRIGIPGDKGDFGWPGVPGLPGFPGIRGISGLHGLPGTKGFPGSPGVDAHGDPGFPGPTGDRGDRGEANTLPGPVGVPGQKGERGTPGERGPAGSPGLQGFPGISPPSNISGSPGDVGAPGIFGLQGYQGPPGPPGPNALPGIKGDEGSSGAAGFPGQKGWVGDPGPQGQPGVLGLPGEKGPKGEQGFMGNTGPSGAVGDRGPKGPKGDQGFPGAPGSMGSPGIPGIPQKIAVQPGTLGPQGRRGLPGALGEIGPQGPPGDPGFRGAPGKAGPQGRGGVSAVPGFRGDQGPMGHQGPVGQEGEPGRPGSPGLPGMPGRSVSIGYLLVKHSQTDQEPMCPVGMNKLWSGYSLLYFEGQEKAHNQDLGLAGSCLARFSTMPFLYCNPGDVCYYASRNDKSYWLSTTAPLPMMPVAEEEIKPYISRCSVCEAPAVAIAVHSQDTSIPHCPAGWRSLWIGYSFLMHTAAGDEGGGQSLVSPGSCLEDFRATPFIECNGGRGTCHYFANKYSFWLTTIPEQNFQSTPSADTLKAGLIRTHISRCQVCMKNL

As for “GroEL protein of Leptospira interrogans (recombinant, His-tagged) (from UniProt P61438 1-546) (natural protein)”, the Kd is 0.031 µM in assay [1]; 0.034 µM and 0.01 µM in assay [2].
With “leptospiral protein 25 (Lp25) (natural protein)”, the Kd in assay [1] is 4.43 µM; in assay [3] it was 2.42 µM; in assay [4], 0.699 µM; in assay [2], 5.37 µM and 6.37 µM; in assay [5], 0.606 µM; in assay [6], 1.14 µM. Also, the Kd in assay [7] is 0.606 µM.
Take “truncated form of leptospiral immunoglobulin-like protein B (LigBC, amino acids 631-1156) (from UniProt Q72V39 631-1156) (domain or fragment)”: the Kd in assay [1] is 0.005 µM; in assay [2], 0.015 µM and 0.006 µM.
